{
  "source": "paper PMC10215522",
  "origin": "cited, not measured here",
  "target": "TFPI2 (Homo sapiens) (UniProt P48307)",
  "sequence (P48307 23-235)": "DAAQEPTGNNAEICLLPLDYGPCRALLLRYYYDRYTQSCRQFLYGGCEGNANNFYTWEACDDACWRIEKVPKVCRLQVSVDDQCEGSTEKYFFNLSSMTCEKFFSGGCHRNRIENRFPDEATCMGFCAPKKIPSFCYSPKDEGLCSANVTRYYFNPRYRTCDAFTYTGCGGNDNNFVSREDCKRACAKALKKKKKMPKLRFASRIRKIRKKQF",
  "data": [
    {"substance": "gC1qR (from UniProt Q07021)", "values": [
      {"measurement": "Kd", "result": 0.07, "unit": "µM"}
    ]}
  ]
}
